# Where no end group is shown, it is not given here. [ ]: non-standard residue; d: D form. FAM = fluorescein
# How the values were obtained:
# MMP13 = biological target: T1, MMP13 (Homo sapiens, UniProt P45452); test: In vitro recombinant protease assay (fluorescence dequenching of NP-bound substrate); type: biochemical; settings: for cleavage of substrate by MMP13: unmodified substrate on particle
# T1 construct: purchased Enzo Life Sciences
# Procedure: (§1) C1-NP complexes sensitive to MMP cleavage were mixed with 1% (wt/vol) BSA (Sigma) and incubated with recombinant proteases (MMPs and ADAMs: Enzo Life Sciences; Clotting proteases: Haematologic Technologies) in a final volume of 100 μL in enzyme-specific buffers (MMP buffer: 50 mM Tris, 150 mM NaCl, 5 mM CaCl2, 1 μM ZnCl2, pH 7.5; Clotting proteases: PBS) in a 384-well plate for time-lapse fluorimetry to measure dequenching from homoquenched peptides at 37° C. (SpectroMax Gemini EM Microplate Reader). For the metalloproteinase, enzymes were diluted 1:10 in enzyme specific buffer, and for clotting proteases, enzymes were diluted 1:100. Cleavage heatmap was generated using GENE-E (Broad Institute). Michaelis-Menten constants were determined by assessing initial cleavage velocities at different substrate concentrations. The MMP inhibitor Marimatstat (Tocris) was added to the mixture at 100 μM final concentration. To identify the cleavage position by MMP9, C1-NPs were incubated with MMP9 overnight, and the N-terminal cleavage fragment was isolated and analyzed by MALDI. The sequence corresponding to the dominant peak was identified, and the final amino acid was in that sequence represents the P1 position (toward the N-terminal end from scissile bond). For protease resistance assays, various DMNPE: peptide ratios were reacted overnight and purified prior to being added to proteases.
# (§2) Light activation of peptides for biochemical studies was performed using a CL-1000 UV Cross-linker (UVP, 8 mW/cm^2). Power density was measured by an OAI 306 UV power meter at 365 nm. Typical exposure time for these studies was 10-30 min. For activation in cell and animal studies, Lumen Dynamics UV system with 365 nm fiber light guide was used (OmniCure 1000, 200 mW/cm^2). For in vivo activation at the tumor site, mice were anesthetized, and the light was guided through an optical cable and placed approximately 3 cm from the flank tumor. Each flank tumor was exposed for 30 s.
# LS174T cells [1] = test: Secreted protease activity assay, conditioned media; type: cell-based, human; settings: conditioned media from LS174T cells
# Procedure: (§3) LS174T and CCD-18Co (ATCC CRL-1459) cells were cultured in Eagle's Minimal Essential Medium (ATCC) supplemented with 10% FBS (Gibco) and 1% penicillin-streptomycin (CellGro). Cells were passaged when confluence reached 80%. To isolate secreted proteases, after cells were plated, cells were washed and replaced in serum-free media. Conditioned media was collected 24 h later and exposed to C1-NPs to measure fluorescence dequenching.
# [2] = NP stability in physiological solution (lack of fluorescent dequenching); type: in vitro ADME; settings: physiological solution (human control serum, FIG. 7C), 37° C., 24 h
# Procedure: Next, whether STREAMs could provide both spatial and temporal control of MMP activity measurements was tested. First, whether the veiled NPs would block protease cleavage until activation by light was evaluated. Due to homoquenching of the fluorescent substrates once assembled on the NPs, protease activity can be monitored by measuring increases in sample fluorescence that occurs from peptide proteolysis (FIG. 7B). NPs were stable in physiological solution at 37° C. over 24 h, as confirmed by a lack of fluorescent dequenching (FIG. 7C).
# LS174T cells [3] = test: 3D collagen cancer tissue model, peptide fluorescence in supernatant; type: cell-based, human
# Procedure: Next, the activation of the nanosensors in a 3D ECM environment was probed. Forty LS174T cells were embedded in collagen I together with veiled or unmodified nanosensors (FIG. 4A). The constructs were monitored for protease activity by collecting the supernatant and measuring liberated peptide fragments under different conditions: L-amino acid peptide substrates were compared to D-amino acid counterparts to measure nonspecific background, and the role of DMPNE veiling was measured.
# In order to correlate regions of light-activation with protease activity measurements, light-activated rhodamine dye was included to visualize regions exposed to light (FIG. 12A). To explore the ability to monitor protease activity with spatial and temporal control, only the left half of the gels was illuminated.
# LS174T cells were encapsulated in 2.5 mg/mL collagen hydrogels (rat tail collagen type I, Corning). Imaging was done on Nikon Eclipse Ti Inverted Microscopes and Zeiss Stereoscope Discovery v20. When protease activity was measured, surrounding media was serum-free.
# CCD-18Co cell line = test: Secreted protease activity assay, conditioned media; type: cell-based; settings: conditioned media from CCD-18Co cells
# Procedure: as §3
# MMP9 = MMP9 (Homo sapiens, UniProt P14780); test: In vitro recombinant protease assay (fluorescence dequenching of NP-bound substrate); type: biochemical; parameters: purchased Enzo Life Sciences
# Procedure: as §1, §2
# MMP1 = biological target: T2, MMP1 (Homo sapiens, UniProt P03956); test: as above; type: biochemical; settings: unmodified substrate on particle
# T2 construct: purchased Enzo Life Sciences
# T2 sequence (P03956 100-469): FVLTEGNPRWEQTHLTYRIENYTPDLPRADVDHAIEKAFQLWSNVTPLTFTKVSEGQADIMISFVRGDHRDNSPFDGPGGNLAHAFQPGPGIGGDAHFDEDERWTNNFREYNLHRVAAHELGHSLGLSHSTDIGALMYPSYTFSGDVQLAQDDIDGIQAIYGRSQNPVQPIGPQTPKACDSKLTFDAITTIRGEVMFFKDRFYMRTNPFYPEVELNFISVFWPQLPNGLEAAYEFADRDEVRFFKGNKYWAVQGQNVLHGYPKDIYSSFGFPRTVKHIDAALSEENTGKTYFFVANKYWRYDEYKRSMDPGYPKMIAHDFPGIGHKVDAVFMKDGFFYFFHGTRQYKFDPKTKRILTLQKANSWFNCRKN
# Procedure: as §1
# MMP7 = biological target: T3, MMP7 (Homo sapiens, UniProt P09237); test: as above; type: biochemical; settings: unmodified substrate on particle
# T3 construct: purchased Enzo Life Sciences
# T3 sequence (P09237 95-267): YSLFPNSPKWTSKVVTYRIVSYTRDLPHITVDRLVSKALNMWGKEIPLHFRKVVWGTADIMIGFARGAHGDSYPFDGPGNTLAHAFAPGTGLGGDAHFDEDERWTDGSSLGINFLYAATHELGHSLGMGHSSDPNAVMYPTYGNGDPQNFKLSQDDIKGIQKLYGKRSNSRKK
# Procedure: as §1
# MMP14 = biological target: T4, MMP14 (Homo sapiens, UniProt P50281); test: as above; type: biochemical; settings: unmodified substrate on particle
# T4 construct: purchased Enzo Life Sciences
# Procedure: as §1
# Chain of MMP9 (P14780 94-707, species assumed): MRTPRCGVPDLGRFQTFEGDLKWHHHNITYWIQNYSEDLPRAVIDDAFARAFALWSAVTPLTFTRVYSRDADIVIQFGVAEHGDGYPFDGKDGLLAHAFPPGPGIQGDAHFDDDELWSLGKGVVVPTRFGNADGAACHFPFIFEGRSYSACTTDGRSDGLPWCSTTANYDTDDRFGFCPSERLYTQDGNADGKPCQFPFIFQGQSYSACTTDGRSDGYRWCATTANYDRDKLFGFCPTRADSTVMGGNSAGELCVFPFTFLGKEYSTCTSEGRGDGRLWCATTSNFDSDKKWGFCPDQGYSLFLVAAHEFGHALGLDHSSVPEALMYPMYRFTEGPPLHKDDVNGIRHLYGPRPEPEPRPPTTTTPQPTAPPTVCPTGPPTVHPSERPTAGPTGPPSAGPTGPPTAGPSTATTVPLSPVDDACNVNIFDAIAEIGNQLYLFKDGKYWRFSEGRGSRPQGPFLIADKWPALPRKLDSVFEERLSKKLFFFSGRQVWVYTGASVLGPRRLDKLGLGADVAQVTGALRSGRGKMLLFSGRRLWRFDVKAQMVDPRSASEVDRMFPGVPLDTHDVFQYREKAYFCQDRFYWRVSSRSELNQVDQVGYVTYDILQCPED
substance,measurement,setting,value
C1-NPs: Iron oxide NPs functionalized with fluorescein-conjugated peptide substrate C1 at surface valency >20; in vitro protease sensor ({FAM}-[dS][dK]PLGLEEAGC(iron oxide nanoparticle); not fully specified; printed as FAM-sk-PLGLEEA-GC; also: C-terminal Cys coupled to iron oxide nanoparticle),catalytic efficiency,"MMP13; MMP13, Michaelis-Menten fit",> 10^4 M^−1 s^−1
same,cleavage of substrate by MMP13,MMP13,most efficient
same,cleavage of substrate by MMP13,MMP13; listed as C1-NP,significantly cleaved
same,cleavage by cell-secreted proteases,LS174T cells [1],peptide cleavage and a dose-dependent increase in fluorescence
same,stability (lack of fluorescent dequenching),[2],stable
same,liberated peptide fluorescence in supernatant,"LS174T cells [3]; first day, no light",significantly more fluorescent peptides than those with D-amino acid NPs
same,peptide fluorescence in supernatant after light exposure,"LS174T cells [3]; left half of gels illuminated, 24 h, 30 s at 200 mW/cm^2",did not exhibit significant changes in peptide fluorescence
same,cleavage by cell-secreted proteases,CCD-18Co cell line,significantly lower compared to LS174T cells
same,catalytic efficiency,"MMP9; MMP9, Michaelis-Menten fit",> 10^3 M^−1 s^−1
same,cleavage of substrate by MMP9,MMP9; unmodified substrate on particle,significantly cleaved
same,cleavage of substrate by MMP1,MMP1,significantly cleaved
same,cleavage of substrate by MMP7,MMP7,significantly cleaved
same,cleavage of substrate by MMP14,MMP14,able to cleave the substrate

# From patent US11428689B2, “Methods and uses for remotely triggered protease activity measurements” (Massachusetts Institute of Technology, priority 2016, dated 2022)
